Numbering of substitutions follows the chain as printed.
Assays:
[1] = target: T1, recombinant Lu extracellular domain fused with an Fc-Tag (Lu-Fc) (Homo sapiens, UniProt P50895)
[2] = target: recombinant Lu extracellular domain fused with a 6xHis-Tag (Sol-Lu) (Homo sapiens, UniProt P50895)
H12M35-Fc = H12M35-Fc (Homo sapiens / Mus musculus chimera, UniProt P50895;Q9R069, chimera)
[3] = target: T1, recombinant Lu extracellular domain …; experiment: SPR; BIAcore T200; Lu-Fc immobilized on a CM5 chip; C7 scFv (6.25, 12.5, 25, 50 and 100 nM) injected in 10 mM HEPES pH 7.4, 150 mM NaCl, 3 mM EDTA, 0.005% Tween 20 at 50 μl/min; nonlinear fitting; conditions: both partners purified

Chain of recombinant Lu extracellular domain fused with a 6xHis-Tag (Sol-Lu) (P50895 32-547): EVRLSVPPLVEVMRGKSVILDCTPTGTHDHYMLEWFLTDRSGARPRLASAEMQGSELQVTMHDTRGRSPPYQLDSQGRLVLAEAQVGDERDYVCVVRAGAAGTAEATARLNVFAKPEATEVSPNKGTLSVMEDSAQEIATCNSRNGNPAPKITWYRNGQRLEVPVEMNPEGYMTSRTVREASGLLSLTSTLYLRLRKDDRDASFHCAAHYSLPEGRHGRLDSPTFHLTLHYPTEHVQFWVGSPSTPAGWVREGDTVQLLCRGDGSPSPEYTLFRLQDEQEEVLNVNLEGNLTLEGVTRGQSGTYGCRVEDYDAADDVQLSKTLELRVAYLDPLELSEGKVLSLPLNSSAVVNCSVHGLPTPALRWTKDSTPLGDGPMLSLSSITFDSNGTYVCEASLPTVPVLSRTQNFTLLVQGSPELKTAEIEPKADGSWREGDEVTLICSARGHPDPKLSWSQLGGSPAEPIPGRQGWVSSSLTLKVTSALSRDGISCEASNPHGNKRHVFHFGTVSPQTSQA
T1 sequence (P50895 32-547): as above
Chain of H12M35-Fc (Q9R069 other isoform, or with tags, fused parts or gaps chimera): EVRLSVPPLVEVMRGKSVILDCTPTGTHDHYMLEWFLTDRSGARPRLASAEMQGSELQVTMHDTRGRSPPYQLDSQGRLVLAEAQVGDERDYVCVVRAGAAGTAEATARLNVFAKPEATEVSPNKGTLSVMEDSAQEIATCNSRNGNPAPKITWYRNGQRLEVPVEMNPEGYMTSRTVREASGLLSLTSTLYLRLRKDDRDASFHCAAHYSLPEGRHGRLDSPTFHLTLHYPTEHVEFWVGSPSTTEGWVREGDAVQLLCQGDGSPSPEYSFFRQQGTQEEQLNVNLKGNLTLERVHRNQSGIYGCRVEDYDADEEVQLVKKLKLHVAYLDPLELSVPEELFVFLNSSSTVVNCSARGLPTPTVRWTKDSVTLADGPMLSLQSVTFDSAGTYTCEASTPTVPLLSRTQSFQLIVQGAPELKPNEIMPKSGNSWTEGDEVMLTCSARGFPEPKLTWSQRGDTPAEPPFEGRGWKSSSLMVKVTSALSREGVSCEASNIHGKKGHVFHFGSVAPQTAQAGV

B1: A1 (antibody, V domains shown)
VH: QVQLVQSGAEVRRPGSSVRISCRTSGGTFNNYALSWVRQAPGQGLEWMGGIIPIVGTAVYAEKFEDSVTVTADESASTAYMEVRSLRSEDTAVYYCATGEKFVSPWFGDLPLHHWGQGTLVTVSS
VL: QSVLTQPPSVSGAPGQRVTISCTGSSSNIGAPYDVHWYQQVPGTAPKLLIYGNTNRPSRVPDRFSGSKSGTSASLAITGLQADDEADYYCQSYDRSLGGSIFGGGTKLTVL
B1: binds [1]; binds [2]; binds (H12M35-Fc).

B2: A4 (antibody, V domains shown)
VH: B1 VH
VL: B1 VL with R59G
B2: binds [1]; binds [2]; binds (H12M35-Fc).

B3: B8 (antibody, V domains shown)
VH: B1 VH with V2M
VL: B1 VL with V41L, R59G, L108V
B3: binds [1]; binds [2]; binds (H12M35-Fc).

B4: C7 scFv (soluble, purified) (scFv, V domains shown)
VH: B1 VH with V2M, R87G
VL: B1 VL with V41I, R59G
notes: VH of clone C7, as in m3; linker, printed as (Gly4Ser)3; VL of clone C7, as in m3; Single band of 29-30 kDa; monomer by size exclusion chromatography; The 6xHis tag is named in the discussion (6xHis tag antibody); also called the scFv form; the purified C7 scFv; source: E. coli HB2151, periplasmic fraction, purified (His Trap excel)
For B4, the Kd [3] was 36.6 nM, the koff [3] was 0.0049 s⁻¹ and the kon [3] was 135000 M⁻¹ s⁻¹.

From PMC5218393 (PLoS ONE, 2017)
